From US20060234285A1 (Human Genome Sciences, published 2006)

T1: Full-length human TR6 (without Fc) (human, UniProt O95407 30-300)
T1 construct: Full-length cDNA expressed in Sf9 cells with the natural leader; also called TR6 non-Fc; TR6-non-Fc
T1 sequence: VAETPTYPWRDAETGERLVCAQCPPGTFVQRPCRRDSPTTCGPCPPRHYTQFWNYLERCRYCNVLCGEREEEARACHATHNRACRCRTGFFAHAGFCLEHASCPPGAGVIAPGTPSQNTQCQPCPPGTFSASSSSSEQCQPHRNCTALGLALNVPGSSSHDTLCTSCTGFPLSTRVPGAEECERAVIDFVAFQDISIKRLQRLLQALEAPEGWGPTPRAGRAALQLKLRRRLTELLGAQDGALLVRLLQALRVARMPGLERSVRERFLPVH

T2: TNF-gamma-beta, full length, on transfected cells (human, UniProt O95150 1-251)
T2 construct: whole, on cells; also called TL1β
T2 sequence (looked up): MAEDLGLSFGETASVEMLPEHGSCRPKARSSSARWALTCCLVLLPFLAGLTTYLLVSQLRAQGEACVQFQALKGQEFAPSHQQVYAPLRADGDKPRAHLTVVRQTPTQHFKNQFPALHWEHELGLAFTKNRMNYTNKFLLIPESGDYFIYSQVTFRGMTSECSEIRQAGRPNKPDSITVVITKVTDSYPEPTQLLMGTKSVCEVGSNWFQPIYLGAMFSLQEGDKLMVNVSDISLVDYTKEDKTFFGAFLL

T3: FLAG-tagged soluble form of TNF-gamma-beta (aa 72-251) (human, UniProt O95150 72-251)
T3 construct: also called FLAG-TL1β; FLAG-TNF-gamma-beta
T3 sequence (looked up): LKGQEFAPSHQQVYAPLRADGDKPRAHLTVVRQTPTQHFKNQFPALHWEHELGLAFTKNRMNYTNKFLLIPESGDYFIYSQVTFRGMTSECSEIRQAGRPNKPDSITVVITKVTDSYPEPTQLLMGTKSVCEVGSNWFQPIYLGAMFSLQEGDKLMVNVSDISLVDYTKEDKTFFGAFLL

T4: Murine FasL on transfected murine L929 cells (murine, UniProt P41047 1-279)
T4 sequence (looked up): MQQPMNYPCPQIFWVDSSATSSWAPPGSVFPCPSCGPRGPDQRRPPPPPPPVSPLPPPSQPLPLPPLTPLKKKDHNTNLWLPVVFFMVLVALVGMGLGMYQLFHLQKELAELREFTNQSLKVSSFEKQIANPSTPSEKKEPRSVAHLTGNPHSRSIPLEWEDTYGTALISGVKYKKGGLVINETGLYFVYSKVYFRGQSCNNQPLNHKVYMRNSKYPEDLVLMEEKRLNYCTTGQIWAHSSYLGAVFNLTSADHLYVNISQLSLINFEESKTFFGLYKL

T5: sFas ligand (Alexis Corporation) with a FLAG epitope tag at its N-terminus (human, UniProt P48023 103-281)
T5 sequence (looked up): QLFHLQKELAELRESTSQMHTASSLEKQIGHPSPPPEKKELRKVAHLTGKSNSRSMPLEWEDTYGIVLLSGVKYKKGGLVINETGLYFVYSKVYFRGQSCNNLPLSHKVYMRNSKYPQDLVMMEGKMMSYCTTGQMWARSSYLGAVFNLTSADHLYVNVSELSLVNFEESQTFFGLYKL

T6: TNFR-6 alpha-(His) (human, UniProt O95407 30-300)
T6 construct: also called TNFR-6α; DcR3
T6 sequence: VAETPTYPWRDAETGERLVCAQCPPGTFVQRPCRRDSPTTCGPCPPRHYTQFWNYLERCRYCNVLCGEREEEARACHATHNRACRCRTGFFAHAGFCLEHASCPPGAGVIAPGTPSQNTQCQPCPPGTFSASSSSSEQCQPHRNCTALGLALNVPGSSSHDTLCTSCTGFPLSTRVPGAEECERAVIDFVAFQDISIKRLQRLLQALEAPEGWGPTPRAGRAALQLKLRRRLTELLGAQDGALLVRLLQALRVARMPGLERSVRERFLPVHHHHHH

B1: Extra-cellular portion of FasL (Oncogene Research Products), amino acids 103-281 (ligand, human, UniProt P48023 103-281, looked up)
chain: T5 sequence (looked up)
notes: range 103-281; Immobilised on a BIAcore chip (2020 RU); also called immobilized FasL
B2: Soluble human FLAG-FasL (synthesized at HGS) (ligand, UniProt P48023 130-281, looked up, not shown: small tags and cut ends)
chain: QIGHPSPPPEKKELRKVAHLTGKSNSRSMPLEWEDTYGIVLLSGVKYKKGGLVINETGLYFVYSKVYFRGQSCNNLPLSHKVYMRNSKYPQDLVMMEGKMMSYCTTGQMWARSSYLGAVFNLTSADHLYVNVSELSLVNFEESQTFFGLYKL
notes: called trimerized in the kinetic BIAcore run; cross-linked with FLAG antibody in the cell assays; also called FasL-Flag; trimerized FLAG-FasL
B3: DcR1-Fc (Fc fusion, UniProt O14798 26-236, looked up, not shown: a dimerising Fc or GST)
chain: ATTARQEEVPQQTVAPQQQRHSFKGEECPAGSHRSEHTGACNPCTEGVDYTNASNNEPSCFPCTVCKSDQKHKSSCTMTRDTVCQCKEGTFRNENSPEMCRKCSRCPSGEVQVSNCTSWDDIQCVEEFGANATVETPAAEETMNTSPGTPAPAAEETMNTSPGTPAPAAEETMTTSPGTPAPAAEETMTTSPGTPAPAAEETMITSPGTPA
notes: extracellular domain
B4: TACI-Fc (extracellular domain of human TAC1, aa 1-159, fused to the Fc domain of human IgG1) (Fc fusion, UniProt O14836 1-159, looked up, not shown: a dimerising Fc or GST)
chain: MSGLGRSRRGGRSRVDQEERFPQGLWTGVAMRSCPEEQYWDPLLGTCMSCKTICNHQSQRTCAAFCRSLSCRKEQGKFYDHLLRDCISCASICGQHPKQCAYFCENKLRSPVNLPPELRRQRSGEVENNSDNSGRYQGLEHRGSEASPALPGLKLSADQ
notes: range 1-159; also called TAC1-Fc
B5: RANK-Fc (Fc fusion, UniProt Q9Y6Q6 30-212, looked up, not shown: a dimerising Fc or GST)
chain: IAPPCTSEKHYEHLGRCCNKCEPGKYMSSKCTTTSDSVCLPCGPDEYLDSWNEEDKCLLHKVCDTGKALVAVVAGNSTTPRRCACTAGYHWSQDCECCRRNTECAPGLGAQHPLQLNKDTVCKPCLAGYFSDAFSSTDKCRPWTNCTFLGKRVEHHGTEKSDAVCSSSLPARKPPNEPHVYLP
notes: extracellular domain
B6: AITR-Fc (Fc fusion, UniProt Q9Y5U5 26-162, looked up, not shown: a dimerising Fc or GST)
chain: QRPTGGPGCGPGRLLLGTGTDARCCRVHTTRCCRDYPGEECCSEWDCMCVQPEFHCGDPCCTTCRHHPCPPGQGVQSQGKFSFGFQCIDCASGTFSGGHEGHCKPWTDCTQFGFLTVFPGNKTHNAVCVPGSPPAEP
notes: extracellular domain
B7: OPG-Fc (Fc fusion, UniProt O00300 22-201, looked up, not shown: a dimerising Fc or GST)
chain: ETFPPKYLHYDEETSHQLLCDKCPPGTYLKQHCTAKWKTVCAPCPDHYYTDSWHTSDECLYCSPVCKELQYVKQECNRTHNRVCECKEGRYLEIEFCLKHRSCPPGFGVVQAGTPERNTVCKRCPDGFFSNETSSKAPCRKHTNCSVFGLLLTQKGNATHDNICSGNSESTQKCGIDVTL
notes: extracellular domain
B8: TNFR-6 alpha-Fc fusion protein (full length TNFR-6 alpha, amino acids 1-300 of SEQ ID NO:2, fused to the Fc domain of human IgG1) (Fc fusion, not shown: a dimerising Fc or GST)
chain: T1 sequence
B9: DcR2-Fc (Fc fusion, UniProt Q9UBN6 56-211, looked up, not shown: a dimerising Fc or GST)
chain: ATIPRQDEVPQQTVAPQQQRRSLKEEECPAGSHRSEYTGACNPCTEGVDYTIASNNLPSCLLCTVCKSGQTNKSSCTTTRDTVCQCEKGSFQDKNSPEMCRTCRTGCPRGMVKVSNCTPRSDIKCKNESAASSTGKTPAAEETVTTILGMLASPYH
notes: extracellular domain
B10: AIM-II, full sequence, on stably transfected HEK 293 EBNA cells (ligand, UniProt O43557 1-240, looked up)
chain: MEESVVRPSVFVVDGQTDIPFTRLGRSHRRQSCSVARVGLGLLLLLMGAGLAVQGWFLLQLHWRLGEMVTRLPDGPAGSWEQLIQERRSHEVNPAAHLTGANSSLTGSGGPLLWETQLGLAFLRGLSYHDGALVVTKAGYYYIYSKVQLGGVGCPLGLASTITHGLYKRTPRYPEELELLVSQQSPCGRATSSSRVWWDSSFLGGVVHLEAGEKVVVRVLDERLVRLRDGTRSYFGAFMV
notes: whole, on cells
B11: OX40-Fc (Fc fusion, UniProt P43489 29-214, looked up, not shown: a dimerising Fc or GST)
chain: LHCVGDTYPSNDRCCHECRPGNGMVSRCSRSQNTVCRPCGPGFYNDVVSSKPCKPCTWCNLRSGSERKQLCTATQDTVCRCRAGTQPLDSYKPGVDCAPCPPGHFSPGDNQACKPWTNCTLAGKHTLQPASNSSDAICEDRDPPATQPQETQGPPARPITVQPTEAWPRTSQGPSTRPVEVPGGRA
notes: extracellular domain
B12: TNFR1-Fc (Fc fusion, UniProt P19438 30-211, looked up, not shown: a dimerising Fc or GST)
chain: LVPHLGDREKRDSVCPQGKYIHPQNNSICCTKCHKGTYLYNDCPGPGQDTDCRECESGSFTASENHLRHCLSCSKCRKEMGQVEISSCTVDRDTVCGCRKNQYRHYWSENLFQCFNCSLCLNGTVHLSCQEKQNTVCTCHAGFFLRENECVSCSNCKKSLECTKLCLPQIENVKGTEDSGTT
notes: extracellular domain; also called TNFRLFc

Assays:
[1] = molecular target: B8; assay: BIAcore
[2] = molecular target: T1, Full-length human TR6 (without Fc); assay: BIAcore, FasL-Flag soluble
[3] = molecular target: B8; assay: BIAcore, TR6-Fc immobilized, trimerized FLAG-FasL soluble
[4] = molecular target: T2, TNF-gamma-beta, full length, on …; assay: flow cytometry on HEK293F cells expressing full length TNF-gamma-beta
Method: One million cells, in 0.1 ml of FACS buffer (PBS, 0.1% BSA, 0.1% NaN₃), were incubated with 0.1-1 microgram of protein or antibody at RT for 15 min. The cells were washed with 3 ml of FACS buffer, reacted with biotinylated primary antibody, and stained with PE-conjugated secondary antibody at RT for 15 min. Cells were then washed again, resuspended in 0.5 microgram/ml of propidium iodide, and live cells were gated and analyzed on a FACScan using the CellQuest software (BD Biosciences).

[5] = molecular target: T3, FLAG-tagged soluble form of …; assay: coimmunoprecipitation with protein A-Sepharose, anti-Flag western blot
Source text: The beads were then precipitated and washed extensively with PBST buffer (PBS, 0.5% Triton X-100) before boiled in SDS-sample buffer. Proteins were resolved on 4-20% Tris-Glycine gels (NOVEX), transferred to nitrocellulose membranes, and blotted with anti-Flag M2 monoclonal antibody (1 microgram/ml, Sigma) and horseradish peroxidase (HRP)-conjugated goat anti-mouse IgG antibody (0.5 microgram/ml).

[6] = molecular target: B2; assay: cell-based or functional assay
[7] = molecular target: T4, Murine FasL on transfected murine L929 …; assay: cell-based or functional assay
[8] = molecular target: T5, sFas ligand (Alexis Corporation) with a …; assay: cell-based or functional assay
TNFR-6 alpha-(His) = molecular target: T6, TNFR-6 alpha-(His); assay: flow cytometry on AIM-II-transfected HEK 293 EBNA cells

Binder | binding result [4] | other results
B1 |  | binding result [1]: binds
B2 |  | Kd [2]: 17 nM; Kd [3]: 4.6 nM
B3 | no binding | 
B4 | no binding | binding result [5]: no binding
B5 | no binding | 
B6 | no binding | 
B7 | no binding | 
B8 |  | potency against FasL-induced Jurkat cytotoxicity relative to Fas-Fc [6]: 100 fold; IC50 of inhibition of killing of A20 target cells by murine FasL-transfected L929 cells [7]: ~1 ng/mL; IC50 (read off the curve): TR6Fc concentration giving half rescue of Jurkat viability from sFasL 20 ng (Alamar blue, OD 570 nm - 630 nM) [8]: ~5 ng/mL
B9 | no binding | 
B10 |  | binding result (TNFR-6 alpha-(His)): binds
B11 | no binding | 
B12 | no binding | 
